What was measured:
[1] = molecular target: recombinant human GDF-11 (Peprotech, Inc., Cat. #120-11) (human) (UniProt O95390); test: ELISA, human GDF-11 coated on plate, isotype control at 1 ug/ml (column headed 510C2 GDF-11)
[2] = molecular target: recombinant human HGF (R&D Systems, catalog #294-HG/CF) (human) (UniProt P14210); test: ELISA, human HGF coated on plate, isotype control at 1 ug/ml (column headed C12 HGF)
[3] = molecular target: recombinant human GDF-11 (Peprotech, Inc., Cat. #120-11) (human) (UniProt O95390); test: ELISA, human GDF-11 coated on plate, isotype control at 1 ug/ml (column headed C12 GDF-11)
human GDF-8 (human) [4] = molecular target: human GDF-8 (human) (UniProt O14793); test: ELISA, human GDF-8 coated on plate, isotype control at 1 ug/ml (column headed C12 GDF-8)
human GDF-8 (human) [5] = molecular target: human GDF-8 (human) (UniProt O14793); test: ELISA, human GDF-8 coated on plate, isotype control at 1 ug/ml (column headed 510C2 GDF-8)
[6] = molecular target: recombinant human HGF (R&D Systems, catalog #294-HG/CF) (human) (UniProt P14210); test: ELISA, human HGF coated on plate, isotype control at 1 ug/ml (column headed 510C2 HGF)
[7] = molecular target: T1, recombinant mouse myostatin (R&D systems, Cat. #788-G8/CF) (mouse, UniProt O08689 268-376); test: ELISA, GDF-8 coated on plate (GDF-8 down), Fab titrated, anti-kappa AP detection
T1 construct: Bought protein; also called GDF-8; myostatin (R&D Systems 788-G8)
T1 sequence: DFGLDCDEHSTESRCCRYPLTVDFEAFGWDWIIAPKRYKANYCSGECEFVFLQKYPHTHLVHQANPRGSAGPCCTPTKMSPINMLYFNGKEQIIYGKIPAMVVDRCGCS

recombinant human GDF-11 (Peprotech, Inc., Cat. #120-11) (human), sequence (O95390 299-407 limits assumed): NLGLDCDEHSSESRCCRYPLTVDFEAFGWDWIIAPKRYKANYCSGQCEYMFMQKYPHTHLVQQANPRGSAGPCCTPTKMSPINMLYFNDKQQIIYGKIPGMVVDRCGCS
recombinant human HGF (R&D Systems, catalog #294-HG/CF) (human), sequence (P14210 32-728 limits assumed): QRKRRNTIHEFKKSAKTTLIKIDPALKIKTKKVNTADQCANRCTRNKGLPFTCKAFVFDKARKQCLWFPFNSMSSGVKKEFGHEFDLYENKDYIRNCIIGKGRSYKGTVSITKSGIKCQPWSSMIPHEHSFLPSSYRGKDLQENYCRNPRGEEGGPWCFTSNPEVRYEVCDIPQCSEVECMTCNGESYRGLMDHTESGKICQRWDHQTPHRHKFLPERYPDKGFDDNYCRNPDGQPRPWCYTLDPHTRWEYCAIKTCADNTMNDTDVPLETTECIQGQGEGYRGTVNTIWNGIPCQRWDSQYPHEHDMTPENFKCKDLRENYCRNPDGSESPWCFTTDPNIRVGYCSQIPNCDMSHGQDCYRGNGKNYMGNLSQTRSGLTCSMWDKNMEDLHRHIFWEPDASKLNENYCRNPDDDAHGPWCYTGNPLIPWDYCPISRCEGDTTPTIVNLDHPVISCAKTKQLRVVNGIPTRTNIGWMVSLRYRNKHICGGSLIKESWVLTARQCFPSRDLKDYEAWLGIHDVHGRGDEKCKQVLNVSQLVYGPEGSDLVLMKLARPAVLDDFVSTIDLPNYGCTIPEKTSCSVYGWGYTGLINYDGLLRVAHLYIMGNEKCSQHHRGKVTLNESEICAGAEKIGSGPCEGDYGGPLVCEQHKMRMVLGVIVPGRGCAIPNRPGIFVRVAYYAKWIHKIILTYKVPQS

Question: Which average absorbance at 490 nm [1] does the source give for isotype control antibody here?
Answer: 0.0919 OD 490 nm

Question: And the average absorbance at 490 nm [2]?
Answer: 0.049 OD 490 nm

Question: What about the average absorbance at 490 nm [3] of the same molecule?
Answer: 0.0487 OD 490 nm

Question: And the average absorbance at 490 nm (human GDF-8 (human) [4])?
Answer: 0.0519 OD 490 nm

Question: And the average absorbance at 490 nm (human GDF-8 (human) [5])?
Answer: 0.0907 OD 490 nm

Question: What about the average absorbance at 490 nm [6] of the same molecule?
Answer: 0.0804 OD 490 nm

B1: C12 Fab (Fab, V domains shown)
VH: QLQLQESGPGLVKPSETLSLTCTVSGFSLRKVGSSVSWIRQPPGKGLEWIGHIYWDDDKRLNPSLRNRVTISVDTSKNQFSLKLSSVTAADTAVYYCARRAITTVIGGGTFDLWGQGTLVTVSS
VL: DIQMTQSPSSLSASVGDRVTITCSASSSISYMHWYQQKPGKAPKLLIYDTSKLARGVPSRFSGSGSGTDFTLTISSLQPEDFATYYCQQWYLNPLTFGGGTKVEIKR
Question: B1 was tested. Which IC50 [7] did it give?
Answer: 0.25 µg/mL

— patent publication US20100087631A1 (Eli Lilly, published 2010)
